Here are results for 2 molecules from patent publication US20260265374A1 (JW THERAPEUTICS R AND D SHANGHAI, published 2026).

Changes are numbered by the printed parent chain.

The target in the assay is T1, Soluble CD19 protein (amino acids 20-291) (UniProt P15391 20-291).
T1 construct: range 20-291; Analyte in SPR, 300 nM to 4.69 nM; also called cognate ligand CD19
T1 sequence (looked up): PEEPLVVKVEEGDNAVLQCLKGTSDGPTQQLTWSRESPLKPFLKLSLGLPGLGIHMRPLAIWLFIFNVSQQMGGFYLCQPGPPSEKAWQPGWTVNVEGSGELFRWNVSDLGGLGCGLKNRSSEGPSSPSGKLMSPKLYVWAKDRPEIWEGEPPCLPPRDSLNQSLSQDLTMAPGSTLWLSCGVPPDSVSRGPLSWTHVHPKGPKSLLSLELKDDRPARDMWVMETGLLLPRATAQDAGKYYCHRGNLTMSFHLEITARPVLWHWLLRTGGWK
Nature of the assay: SPR (Biacore T200), antibody captured on Protein A chip, soluble CD19 as analyte. Here is the method:
All SPR experiments were performed on a Biacore T200 (PCytiva) with HBS-EP as running buffer. The antibodies were captured by Protein A chip (LOT #10309880, Cytiva). Soluble CD19 protein (amino acids 20-291) was used as the analyte at concentrations ranging from 300 nM to 4.69 nM through the flow cells for 120 seconds followed by dissociation analysis for 300 seconds. Association rates (Kon), dissociation rates (Koff) and the constant Ka (Kon/Koff) were fitted to the results.

B1: Antibody comprising scFv-2 fused with human IgG1 Fc fragment (Fc fusion)
chain: DIQMTQTTSSLSASLGDRVTISCRASQDISKYLNWYQQRPDGTVKLLIYHTSRLHSGVPSRFSGSGSGTDYSLTISNLEPEDIATYFCQQGNTLPYTFGGGTKLEITGSTSGSGKPGSGEGSTKGEVKLQESGPGLVAPSQSLSVTCTVSGVSLPDYGVSWIRQPPRKGLEWLGVIWGSETTYYNSALKSRLTIIKDNSKSQVFLKMNSLQTDDTAIYYCAKHYYYGGSYAMDYWGQGTSVTVSS
notes: scFv fused with human IgG1 Fc; not shown: human IgG1 Fc fragment
For B1, the binding result is given as “binds”.

B2: Antibody comprising scFv-1 fused with human IgG1 Fc fragment (Fc fusion)
chain: B1 chain with G100S, K103R
notes: as for B1
B2: the binding result is “binds”.
